This is an account of results in EP3222635A1.

The term Kd denotes the equilibrium constant for the complex coming apart. Read a low Kd as a tighter complex. Broadly, the koff is the first-order rate constant of dissociation. Lower therefore signals slow dissociation. Broadly, the kon is a measure of how fast the partners come together.

Assay [1] concerns the target Soluble human P-selectin (human) (UniProt P16109). Kind of assay: SPR (SensiQ), antibody captured on protein G, soluble human P-selectin 100nM-1.56nM as analyte.
The target is the same in assay [2]. Kind of assay: SPR (SensiQ), reference G1.

UniProt P16109, sequence (P16109 42-771 limits assumed): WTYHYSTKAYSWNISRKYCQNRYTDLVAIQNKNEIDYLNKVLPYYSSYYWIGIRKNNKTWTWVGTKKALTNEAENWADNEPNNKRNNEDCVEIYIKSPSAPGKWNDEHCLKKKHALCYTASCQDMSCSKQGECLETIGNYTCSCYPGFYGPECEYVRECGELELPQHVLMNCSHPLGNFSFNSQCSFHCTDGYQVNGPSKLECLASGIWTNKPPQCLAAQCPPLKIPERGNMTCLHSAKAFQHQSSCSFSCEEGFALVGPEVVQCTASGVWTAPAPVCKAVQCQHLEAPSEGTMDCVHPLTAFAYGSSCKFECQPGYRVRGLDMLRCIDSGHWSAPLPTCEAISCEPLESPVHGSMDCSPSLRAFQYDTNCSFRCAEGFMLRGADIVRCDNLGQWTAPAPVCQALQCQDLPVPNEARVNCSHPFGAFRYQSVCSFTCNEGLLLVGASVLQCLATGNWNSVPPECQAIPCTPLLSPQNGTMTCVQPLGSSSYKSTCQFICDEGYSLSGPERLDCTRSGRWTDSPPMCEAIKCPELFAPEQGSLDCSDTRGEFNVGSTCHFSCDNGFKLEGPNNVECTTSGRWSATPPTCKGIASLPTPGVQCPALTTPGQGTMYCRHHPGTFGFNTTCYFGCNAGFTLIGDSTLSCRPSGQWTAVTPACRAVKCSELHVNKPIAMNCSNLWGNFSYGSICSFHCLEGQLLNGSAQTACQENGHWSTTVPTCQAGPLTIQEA

With “G1 mouse monoclonal anti-P-selectin antibody”, in assay [1], the Kd was found to be 8.94 nM, the koff came to 0.056 s⁻¹ and the on-rate constant (kon) was 6.3e+06 M⁻¹ s⁻¹.

B1: hSel001 humanized IgG2 anti-P-selectin antibody (antibody, from another filing, V domains shown)
VH: QVQLVQSGAEVKKPGASVKVSCKVSGYTFTSYDINWVRQAPGKGLEWMGWIYPGDGSIKYNEKFKGRVTMTVDKSTDTAYMELSSLRSEDTAVYYCARRGEYGNYEGAMDYWGQGTLVTVSS
VL: DIQMTQSPSSLSASVGDRVTITCKASQSVDYDGHSYMNWYQQKPGKAPKLLIYAASNLESGVPSRFSGSGSGTDFTLTISSLQPEDFATYYCQQSDENPLTFGGGTKVEIKR
In assay [1], B1 showed a Kd of 5.89 nM, an off-rate constant (koff) of 0.0131 s⁻¹ and a kon of 2.22e+06 M⁻¹ s⁻¹. Further, in assay [2], the Ka (association constant) higher than G1 was 64.7% and the improvement in the binding affinity compared to G1 turned out to be 34%.
